Target: WT1 peptide … (VLD peptide) pulsed on OCI-AML3 target cells
Assay: cell-based or functional assay

B1: WT1 targeting transgenic T cell receptor (tgTCR) (TCR, V domains shown)
V domain 1: DAGVIQSPRHEVTEMGQEVTLRCKPISGHDYLFWYRQTMMRGLELLIYFNNNVPIDDSGMPEDRFSAKMPNASFSTLKIQPSEPRDSAVYFCASRKTGGYSNQPQHFGDGTRLSILE
V domain 2: SQQPVQSPQAVILREGEDAVINCSSSKALYSVHWYRQKHGEAPVFLMILLKGGEQKGHEKISASFNEKKQQSSLYLTASQLSYSGTYFCGTAWINDYKLSFGAGTTVTVRA
  Cumulative Fold Change in T cell number after stimulation 1 with OCI-AML3 cells pulsed with 500 nM VLD peptide, EP + AAV engineered T cells: 7.9 fold
  Cumulative Fold Change in T cell number after stimulation 1 with OCI-AML3 cells pulsed with 500 nM VLD peptide, LNP + AAV engineered T cells: 7.2 fold
  Cumulative Fold Change in T cell number after stimulation 2 with OCI-AML3 cells pulsed with 500 nM VLD peptide, EP + AAV engineered T cells: 19 fold
  Cumulative Fold Change in T cell number after stimulation 2 with OCI-AML3 cells pulsed with 500 nM VLD peptide, LNP + AAV engineered T cells: 34.2 fold
  Cumulative Fold Change in T cell number after stimulation 3 with OCI-AML3 cells pulsed with 500 nM VLD peptide, EP + AAV engineered T cells: 27.1 fold
  Cumulative Fold Change in T cell number after stimulation 3 with OCI-AML3 cells pulsed with 500 nM VLD peptide, LNP + AAV engineered T cells: 120 fold
